Results on four proteins are retold here after publication PMC2571106 (BMC Microbiology, 2008).

Data set [1] deals with the molecule itself. The data set is described as follows: transmission electron microscopy of self-assembly products (negative stain); 1 mg purified, lyophilised recombinant protein in 1 ml 5 M GHCl, 50 mM Tris-HCl pH 7.2, dialysed against 10 mM CaCl2 in distilled water for 18 h; negative stain with 2,5% uranyl acetate.
Data set [2] deals with the molecule itself. Kind of data set: transmission electron microscopy of self-assembly products (negative stain); SlpA extracted from L. brevis cells with 2 M GHCl, 1 mg/ml, dialysed against water with 5 mM CaCl2 and then water at +4°C; pelleted self-assembly products in 25 mM Tris-HCl pH 8.0.
Data set [3] deals with the molecule itself. The data set is described as follows: precipitation after dialysis from GHCl (self-assembly test); affinity purified protein dissolved in 5 M GHCl at 1 mg/ml, dialysed against PBS for two hours at 4°C, centrifuged 16,000 x g 30 min, precipitate checked by SDS-PAGE.

B1: full length recombinant SlpA (SlpA 1-435), S-layer protein of Lactobacillus brevis ATCC 8287 (natural protein, UniProt Q05044 31-465, looked up)
chain: KSYATAGAYSTLKTDAATRNVEATGTNALYTKPGTVKGAKVVASKATMAKLASSKKSADYFRAYGVKTTNRGSVYYRVVTMDGKYRGYVYGGKSDTAFAGGIKSAETTTKADMPARTTGFYLTDTSKNTLWTAPKYTQYKASKVSLYGVAKDTKFTVDQAATKTREGSLYYHVTATNGSGISGWIYAGKGFSTTATGTQVLGGLSTDKSVTATNDNSVKIVYRTTDGTQVGSNTWVTSTDGTKAGSKVSDKAADQTALEAYINANKPSGYTVTNPNAADATYGNTVYATVSQAATSKVALKVSGTPVTTALTTADANDKVAANDTTANGSSVAGSTVYAAGTKLAQLTTDLTGEKGQVVTLTAIDTDLEDATFTGTTTYYSDLGKAYHYTYTYNKDSAASSNASTQFGSNVTGTLTATLVMGKSTATANGTTWFN
notes: numbers count on: the mature protein; Two full length constructs were made: pKTH5198 (C-terminal linker-His6) and pKTH5199 (N-terminal His6-linker); no cleavage is mentioned; also called rSlpA; nontruncated rSlpA; source: E. coli BL21(DE3), purified (His Trap HP in 4 M GHCl or 6 M urea)
Consider B1, for which the binding result in data set [1] is “binds”.

B2: wild type SlpA isolated from L. brevis ATCC 8287 cells (natural protein, Lactobacillus brevis ATCC 8287, UniProt Q05044 31-465, looked up)
chain: KSYATAGAYSTLKTDAATRNVEATGTNALYTKPGTVKGAKVVASKATMAKLASSKKSADYFRAYGVKTTNRGSVYYRVVTMDGKYRGYVYGGKSDTAFAGGIKSAETTTKADMPARTTGFYLTDTSKNTLWTAPKYTQYKASKVSLYGVAKDTKFTVDQAATKTREGSLYYHVTATNGSGISGWIYAGKGFSTTATGTQVLGGLSTDKSVTATNDNSVKIVYRTTDGTQVGSNTWVTSTDGTKAGSKVSDKAADQTALEAYINANKPSGYTVTNPNAADATYGNTVYATVSQAATSKVALKVSGTPVTTALTTADANDKVAANDTTANGSSVAGSTVYAAGTKLAQLTTDLTGEKGQVVTLTAIDTDLEDATFTGTTTYYSDLGKAYHYTYTYNKDSAASSNASTQFGSNVTGTLTATLVMGKSTATANGTTWFN
notes: numbers count on: the mature protein; source: extracted from L. brevis ATCC 8287 cells with 2 M GHCl, dialysed
In the case of B2, the binding result in data set [2] is recorded as “binds”.

B3: rSlpA_(179-435) (domain or fragment, Lactobacillus brevis ATCC 8287, UniProt Q05044 209-465, looked up)
chain: SGISGWIYAGKGFSTTATGTQVLGGLSTDKSVTATNDNSVKIVYRTTDGTQVGSNTWVTSTDGTKAGSKVSDKAADQTALEAYINANKPSGYTVTNPNAADATYGNTVYATVSQAATSKVALKVSGTPVTTALTTADANDKVAANDTTANGSSVAGSTVYAAGTKLAQLTTDLTGEKGQVVTLTAIDTDLEDATFTGTTTYYSDLGKAYHYTYTYNKDSAASSNASTQFGSNVTGTLTATLVMGKSTATANGTTWFN
notes: numbers count on: the mature protein; also called rSlpA C-terminal domain; source: E. coli BL21(DE3), purified (His Trap HP in 4 M GHCl or 6 M urea)
With B3, the binding result in data set [3] is listed as “binds”.

B4: rSlpA_(146-435) (domain or fragment, Lactobacillus brevis ATCC 8287, UniProt Q05044 176-465, looked up)
chain: LYGVAKDTKFTVDQAATKTREGSLYYHVTATNGSGISGWIYAGKGFSTTATGTQVLGGLSTDKSVTATNDNSVKIVYRTTDGTQVGSNTWVTSTDGTKAGSKVSDKAADQTALEAYINANKPSGYTVTNPNAADATYGNTVYATVSQAATSKVALKVSGTPVTTALTTADANDKVAANDTTANGSSVAGSTVYAAGTKLAQLTTDLTGEKGQVVTLTAIDTDLEDATFTGTTTYYSDLGKAYHYTYTYNKDSAASSNASTQFGSNVTGTLTATLVMGKSTATANGTTWFN
notes: numbers count on: the mature protein; Cloned through an NcoI site; the primer may add residues at the N-terminus (surmise from primer 1602); source: E. coli BL21(DE3), purified (His Trap HP in 4 M GHCl or 6 M urea)
Turning to B4, in data set [3], the binding result was “binds”.
